These results are taken from PMC6477676, “Staufen2-mediated RNA recognition and localization requires combinatorial action of multiple domains”.

Series [1] deals with T1, mStau2 dsRBD1-2 F40A F157A (Mus musculus, UniProt Q8CJ67 8-181, F40A;F157A).
T1 sequence: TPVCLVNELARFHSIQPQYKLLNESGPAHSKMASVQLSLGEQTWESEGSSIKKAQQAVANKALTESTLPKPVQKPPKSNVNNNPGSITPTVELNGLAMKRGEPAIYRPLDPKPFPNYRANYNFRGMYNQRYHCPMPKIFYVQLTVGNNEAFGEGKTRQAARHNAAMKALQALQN
Kind of series: SPR; no fit; SPR: HBS-EP (10 mM HEPES pH 7.4, 150 mM NaCl, 3 mM EDTA, 0.005% P20); EMSA: 5 nM RNA, protein buffer (40 mM Bis-Tris pH 7, 150 mM NaCl, 2 mM DTT presumed), 4% glycerol, 30 ug/mL yeast tRNA, RT; NMR: 150 mM NaCl, 20 mM Na phosphate pH 7.0, 5 mM DTT, 298 K. Particulars: protein: recombinant, label: 5' 32P (EMSA), biotin (SPR). (In general: In SPR one partner is held on a chip, and binding of the other changes the refractive index at the surface.)

Series [2] concerns the target T2, mStau2 dsRBD1-2 F40A H169A (Mus musculus, UniProt Q8CJ67 8-181, F40A;H169A).
T2 sequence: T1 sequence with A150F, H162A
Described as above. Particulars: protein: recombinant, label: 5' 32P (EMSA), biotin (SPR). A general note: In EMSA bound probe runs differently from free probe, usually more slowly.

The target in another series is T3, mStau2 dsRBD1-4 (Mus musculus, UniProt Q8CJ67 8-375).
T3 sequence: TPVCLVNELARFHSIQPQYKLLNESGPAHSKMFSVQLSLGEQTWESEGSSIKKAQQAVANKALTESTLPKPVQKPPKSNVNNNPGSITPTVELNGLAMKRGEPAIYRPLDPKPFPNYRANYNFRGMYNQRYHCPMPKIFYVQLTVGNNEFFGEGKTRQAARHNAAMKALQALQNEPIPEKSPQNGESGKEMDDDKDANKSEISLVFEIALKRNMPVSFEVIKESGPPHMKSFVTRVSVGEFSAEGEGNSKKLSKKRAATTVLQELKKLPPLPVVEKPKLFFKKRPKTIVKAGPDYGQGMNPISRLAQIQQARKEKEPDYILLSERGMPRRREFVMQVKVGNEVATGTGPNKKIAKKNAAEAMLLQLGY
The experiment in a line: SPR; Hill n 1.6; text says 357 nM; SPR: HBS-EP (10 mM HEPES pH 7.4, 150 mM NaCl, 3 mM EDTA, 0.005% P20); EMSA: 5 nM RNA, protein buffer (40 mM Bis-Tris pH 7, 150 mM NaCl, 2 mM DTT presumed), 4% glycerol, 30 ug/mL yeast tRNA, RT; NMR: 150 mM NaCl, 20 mM Na phosphate pH 7.0, 5 mM DTT, 298 K. Particulars: protein: recombinant; tags: HisSUMO removed; label: 5' 32P (EMSA); biotin (SPR); hairpin, 18 bp stem.

The target in another series is T4, mStau2 dsRBD1-2 K59A (Mus musculus, UniProt Q8CJ67 8-181, K59A).
T4 sequence: T1 sequence with A33F, K52A, A150F
Kind of series: SPR; Hill n 1.2; SPR: HBS-EP (10 mM HEPES pH 7.4, 150 mM NaCl, 3 mM EDTA, 0.005% P20); EMSA: 5 nM RNA, protein buffer (40 mM Bis-Tris pH 7, 150 mM NaCl, 2 mM DTT presumed), 4% glycerol, 30 ug/mL yeast tRNA, RT; NMR: 150 mM NaCl, 20 mM Na phosphate pH 7.0, 5 mM DTT, 298 K. Particulars: protein: recombinant; label: 5' 32P (EMSA); biotin (SPR); hairpin, 18 bp stem.

In series [3] the target is T5, mStau2 dsRBD1-4 F40A H169A (Mus musculus, UniProt Q8CJ67 8-375, F40A;H169A).
T5 sequence: T3 sequence with F33A, H162A
Kind of series: SPR; two-site, transient; KDs resemble dsRBD3-4; SPR: HBS-EP (10 mM HEPES pH 7.4, 150 mM NaCl, 3 mM EDTA, 0.005% P20); EMSA: 5 nM RNA, protein buffer (40 mM Bis-Tris pH 7, 150 mM NaCl, 2 mM DTT presumed), 4% glycerol, 30 ug/mL yeast tRNA, RT; NMR: 150 mM NaCl, 20 mM Na phosphate pH 7.0, 5 mM DTT, 298 K. The settings on record: protein: recombinant, label: 5' 32P (EMSA), biotin (SPR).

The mark [4] stands for this setting: imperfect hairpin, 26 bp with two bulges.

Changes are numbered by the printed parent chain.

Regarding GGUAUAUACAUGCACAUGCAAUUUGUGUAUGUGUAUGUAUAUA (structured_RNA) [SRS2+5], the binding result in series [1] (hairpin, 18 bp stem) is listed as “no binding”; in series [2] (hairpin, 18 bp stem) it was “no binding”; in series [3] (hairpin, 18 bp stem), “binds”. For the same molecule, the Kd with mStau2 dsRBD1-4 was determined as 330 ± 148 nM; with mStau2 dsRBD1-2 K59A it was 509 ± 136 nM.

B1: SRS* (SRS3) (structured_RNA)
RNA: GGUAUGUGUGAAUGUGCAUGAAUAUAUAUAUAUAUGCAUAUAUAUAUUUGUAUAUGUUCACACAUG
With B1, the figures for the binding result in series [1] (setting [4]), in series [2] (setting [4]) and in series [3] (setting [4]) were “no binding”, “no binding” and “binds”, respectively.

In general, Kd refers to the concentration at which binding is half-saturated.
